Tested on: MS2 coat protein
Assay: apparent KD of MS2 coat protein; designed switch direction (-1 OFF switch, 1 ON switch): -1; higher = weaker reporter binding
How it was run: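 Designed RNA switches with common flanks were transcribed on Illumina chips by stalled E. coli RNA polymerase and titrated with SNAP-549-labelled MS2 coat protein, from 0.7 or 1.5 nM doubling to 3 µM, in Tris-HCl pH 7.5 buffer with KCl, MgCl2, BSA, DTT, tRNA and Tween-20. Steps lasted 0.8–1.5 h (lowest) to 10–20 min (highest). Titrations ran without input, with 200 uM small-molecule ligand, or with an oligonucleotide input. Normalised cluster fluorescence was curve-fitted, and apparent KD is the per-design median over clusters.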

[1] = input ligand: microRNA oligo, concentration not stated
[2] = Eterna round: R95, input ligand: microRNA oligo, concentration not stated
[3] = Eterna round: R95, input ligand: FMN 200 uM
[4] = Eterna round: R95, input ligand: none

Sequence | apparent KD of MS2 coat protein (input ligand: FMN 200 uM) | apparent KD of MS2 coat protein (input ligand: none) | apparent KD of MS2 coat protein [2] | other results
AGCAUGCAGUAGGAUAUCGAUCCGCAAUAUGAACGAGAAGGGCUGACAUGAGGAUCACCCAUGUGCGUCCUAGG [jl-ex6-4.40 ViennaUCT mod] (Eterna round: R97, puzzle: Exclusion 6) | 19.4 nM | 20.2 nM |  | 
AAAUUAGCAAGUAGGUCCGACAUGAGGAUCACCCAUGUUAGCUAAUCUAACGCUGCAUGAGAGUGCGCUCGUCUUAA [Sensor-V1 #20] (Eterna round: R97, puzzle: Sensor, turn-off variant 1) | 140 nM | 149 nM |  | 
AACCUGAGGCAAAGCUUUAGGUGUACAUGAGGAUCACCCAUGUAGGAUAUGGUAGGCAAAGCUUACCAGAAGGACAUAAAGGUU [Mat - Exclusion NG 3 - Mod of JL - D45] (Eterna round: R96, puzzle: Exclusion NG 3) | 81.4 nM | 47.7 nM |  | apparent KD of MS2 coat protein [1]: 36.4 nM
CAGUACUGAGGAUAUACAUGAGGAUCACCCAUGUGUCUAAUAUUAGGAAACUAGGUAUGUAGAAGGCAGUACUG [Omei Ex3 Mod of Eli 4.27 v6] (Eterna round: R97, puzzle: Exclusion 3) | 318 nM | 36.1 nM |  | 
AUCCAACAUGAGGAUCACCCAUGUGAGGAUAUGCCCAAAACUCUUCGAUCCGAAGAGCGCAGAAGGCACAUGAA [EX1 A.18] (Eterna round: R97, puzzle: Exclusion 1) | 33.4 nM | 13.2 nM |  | 
GACUAGGCAGGAUAUACAUGAGGAUCACCCAUGUGUCUGCGUUAAGCACGUGAAGACGGUAGAAGGGCCUUCAC [ChP 13.04.2015 #17] (puzzle: Exclusion 3) |  |  | 10.3 nM | 
AGCUGUGGCCGAGGAUAUCUAAACCUCAAAACCGAGGUAUACUCGGACAUGAGGAUCACCCAUGUAGAGAAGGCGGUCUCAGCA [Eli eng2 - 036] (Eterna round: R96, puzzle: Exclusion NG 2) | 107 nM | 443 nM |  | apparent KD of MS2 coat protein [1]: 190 nM
UGUGUGAGACAGGAUAUGCCGGUUGUGUUGCUGGUAGAAGGGUCUACAUGAGGAUCACCCAUGUGGCCGGUUGG [Ex6 #80] (Eterna round: R97, puzzle: Exclusion 6) | 19.1 nM | 17.3 nM |  | 
GCCGGUUAAGUCAGGAUAUACCUAUGGAUACAUAGGUAGAAGGGACAUGAGGAUCACCCAUGUUCCUCAUCGGC [Fiskers BMX 4 - 13] (puzzle: Brourd's mod of Exclusion 4) |  |  | 13.3 nM | 
GUCUUGUCAGGAUAUCUUACAUAACCAUCGUAGUUACAAUUGGAGAAGGGACAUGAGGAUCACCCAUGUUUGCG [tap-tap-tappy32] (Eterna round: R97, puzzle: Exclusion 4) | 34.8 nM | 26.6 nM |  | 
UCGUUCCGUGUAGGAUAUUGGCCUCCCUUGGGCCGAGAAGGACAUGAGGAUCACCCAUGUAUGUUAUUAUCGCGCGUGGCGCAU [Design 88] (Eterna round: R96, puzzle: Exclusion NG 1) | 126 nM | 18.4 nM |  | apparent KD of MS2 coat protein [1]: 13.8 nM
UAUUAGCAAGCGAGAUCCGACAUGAGGAUCACCCAUGUGCUCGUCUUAUAAGGGAGGGAGGGAAAACCCUCCCUCCC [Elimod 9 - Jieux - Sensor, turn-off variant 1] (Eterna round: R97, puzzle: Sensor, turn-off variant 1) | 19.5 nM | 21.2 nM |  | 
GUGUAGACAGGAUAUGCUUUGAGCGUAUGAGAGUAGGCUCGACAUGAGGAUCACCCAUGUAGAAGGGUCUACAC [LRO-Excl2-03] (puzzle: Exclusion 2) |  |  | 10.1 nM | 
AAAUAAAGGUAGGAUAUCGAUUUUAAUUAAUAUCGAGAAGGGUCAACAUGAGGAUCACCCAUGUCAGCAUGUAA [LRO-Excl6-01-Rocketman] (Eterna round: R97, puzzle: Exclusion 6) | 59.9 nM | 64.2 nM |  | 
AUCAGCUCGUCAGGAUAUACAUGCGUGCUUCGGCACGUAUGAUAGAUCACAUGAGGAUCACCCAUGUAGAAGGGACGAGCUGAU [ENG2/4-B3] (Eterna round: R96, puzzle: Exclusion NG 2) | 15.3 nM | 12.7 nM |  | apparent KD of MS2 coat protein [1]: 9.19 nM
UGUGCGUAUGUGAGGAUAUGCUGGUCCUUGGAUCAGCAGAAGGCACAUGAGGAUCACCCAUGUGGUGUCGUACA [salish99_Bmod_Ex4_007] (puzzle: Brourd's mod of Exclusion 4) |  |  | 158 nM | apparent KD of MS2 coat protein [3]: 29.2 nM; apparent KD of MS2 coat protein [4]: 307 nM

Sequence | apparent KD of MS2 coat protein (input ligand: FMN 200 uM) | apparent KD of MS2 coat protein (input ligand: none) | apparent KD of MS2 coat protein [2] | other results
AAGUAGUGUGUGAGGAUAUUGGUGGAAUGACACAUUAAGAAGGCACAUGAGGAUCACCCAUGUGGGUUGACACG [Brourd's EX4 #20] (Eterna round: R97, puzzle: Brourd's mod of Exclusion 4) | 282 nM | 47 nM |  | 
AAGAAACAUGAGGAUCACCCAUGUGAGGAUAUGACGAAGAAAAGAAAAGAAAGAAGACUCAGAAGGCACAAAGG [salish99-ex1_r3_076] (puzzle: Exclusion 1) |  |  | 26.7 nM | apparent KD of MS2 coat protein [3]: 48 nM; apparent KD of MS2 coat protein [4]: 43.4 nM
CAAUAGAAAGGAUAUACAGUAGGCGUUGUGCUCGAGCACUCACAUGAGGAUCACCCAUGUAGAAGGUUCAGUUA [EX2 C.18] (Eterna round: R97, puzzle: Exclusion 2) | 27.9 nM | 17.7 nM |  | 
GCCUCACUUGAGGAUCACCCAAGUCAGGAUAUCUACAAGCCGACCAUACCGGCUUGCAAGAGAAGGGACUCUAA [Esonreti] (Eterna round: R97, puzzle: Exclusion 1) | 246 nM | 31.8 nM |  | 
UCUUAUUGCAAGGAUAUGCUUUUUAUUUCUUUUGCAGAAGGUGCAACAUGAGGAUCACCCAUGUUUCCGGGCAU [JR_E6_Sub035] (puzzle: Exclusion 6) |  |  | 16.8 nM | 
AUUUUAACAUAGGAUAUCGAAUUUAUUAUUUAACGAGAAGGAUGAACAUGAGGAUCACCCAUGUGGUAUCAUGG [JL-ex6-3.02] (puzzle: Exclusion 6) |  |  | 204 nM | 
AGCUGUGGCCGAGGAUAUCACGAACCAUGGAAAACCAUGGAACUCAUACAUGAGGAUCACCCAUGUGAGAAGGCGGUCUCAGCA [Eli eng2 - 019] (Eterna round: R96, puzzle: Exclusion NG 2) |  |  |  | apparent KD of MS2 coat protein [1]: 27 nM
CGAUAAAGGUGAGGAUAUGAGAAUAGAAAGAAAUCAGAAGGCACACAUGAGGAUCACCCAUGUGAGUUCUUGAGAUUACAUGGU [Prohibition 44 - Jieux - Exclusion NG 1] (Eterna round: R96, puzzle: Exclusion NG 1) |  |  |  | apparent KD of MS2 coat protein [1]: 11 nM
GAUUAUGCGAGCUUUAGGGACAUGAGGAUCACCCAUGUUCGUCUUAUUAGUCUGAGUACACUGACAUACCUAAAUCU [JMF 62] (puzzle: Sensor v3, turn-off variant 1) |  |  | 14.8 nM | apparent KD of MS2 coat protein [3]: 14.2 nM; apparent KD of MS2 coat protein [4]: 13.3 nM
GAUACCUAUGUAAGGAUAUAUAAAGAGAGCCGCCUGUAGAAGGUACAUGAGGAUCACCCAUGUUGGGAGACCGA [Eternabot (L1) Solution 17] (Eterna round: R97, puzzle: Brourd's mod of Exclusion 4) | 1160 nM | 1390 nM |  | 
CCCACAUGAGGAUAUCCAUCUGGAUCAGACAAGAUCCUGAUGGAGAAGGUACAUGAGGAUCACCCAUGUGUGGG [Mat - Exclusion 4 - Eli Mod - D60] (Eterna round: R97, puzzle: Exclusion 4) | 189 nM | 267 nM |  | 
GAUUAUGCGAGCUUUAGGGACAUGAGGAUCACCCAUGUUCGUCUUAUUGAUCUGGAUGCGCUAACAUACCUAAAUCU [JMF 45] (puzzle: Sensor v3, turn-off variant 1) |  |  | 71.1 nM | apparent KD of MS2 coat protein [3]: 65 nM; apparent KD of MS2 coat protein [4]: 62.9 nM
AAUAACAGAGGAUAUACUAUUUUAUGUGUUUGUUGUUUUAAACAUGAGGAUCACCCAUGUAGAAGGCUGAUUAA [JMF 46] (puzzle: Exclusion 2) |  |  | 33.1 nM | 
AGAAAUGCCCAUGGCCGCAAGCUUUUUGCUUGUCUUACCACAUGAGGAUCACCCAUGUGACAUGGGCUCCUGAUAAU [Bivequ] (puzzle: Sensor v3, turn-off variant 2) |  |  | 10.7 nM | apparent KD of MS2 coat protein [3]: 13.7 nM; apparent KD of MS2 coat protein [4]: 12.1 nM
CGUUCGCGAGGAUAUGCAUUCGAGUCCACUACGUGUCUGGGACUUGAGGAUCACCCAAGUAGAAGGCGCCUCAA [salish99_ex2_r4_651] (Eterna round: R97, puzzle: Exclusion 2) | 171 nM | 230 nM |  | 
GGUGAGCGAGGAUAUACAUGAGGAUCACCCAUGUGAGAGAAUAAAGUGAGGAAGAAAAGUAGAAGGCGCGAACG [Mat - Exclusion 3 - Mod of Salish D47] (puzzle: Exclusion 3) |  |  | 37.8 nM | apparent KD of MS2 coat protein [3]: 91.4 nM; apparent KD of MS2 coat protein [4]: 11.9 nM

Source: the supplement of paper PMC9170038
